± gives the standard deviation of the averaged measurements.
test system: ATP; experiment: switch fluorescence ratio, 500 uM ATP over buffer (Cy3 cluster intensity, sum of 5 cycles each) (fold (ratio)); higher = stronger signal-on switching upon ATP binding; sequences stand for … in TCGTCGGCAGCGTCAGATGTGTATAAGAGACAGTTTTTTTTTTTTTTTTTTTTTTTTT…TC; details: aptamer strand: ATP DNA aptamer (quencher-CACCTGGGGGAGTATTGCGGAGGAAGG + anchor), 100 nM annealed; ATP concentration: 500 uM
How it was run: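 Cy3-labelled switching-strand clusters on a modified Illumina MiSeq flow-cell were annealed to 100 nM quencher-labelled ATP aptamer, imaged in selection buffer, then imaged after 15 min with 500 uM ATP at 22 °C. Five buffer/ATP cycles ran, with NaOH stripping and re-annealing between them. The fluorescence ratio is summed target-cycle over summed buffer-cycle Cy3 intensity per cluster, averaged per switch-domain sequence. Clusters outside 100-1000 RFU were excluded.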
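Further: ATP exposure 15 min at 22 °C before imaging.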

In order of rising switch fluorescence ratio:
1. TTCGTGTGGC  0.932 ± 0.02
2. TTCTTTGGGT  0.947 ± 0.036
3. TTCGTTTTTC  0.956 ± 0.035
4. TTGAGTACCG  0.959 ± 0.022
5. TTCGGGGGGC  0.961 ± 0.039
6. TTCGTGCTTC  0.963 ± 0.024
7. TTCTTTAATT  0.963 ± 0.01
8. TTGAGGTCTT  0.964 ± 0.024
9. TTCTAGGGGT  0.966 ± 0.012
10. TTCGTGGTTG  0.967 ± 0.034
11. TTCGTTTGGG  0.967 ± 0.047
12. TTGAGTAACT  0.967 ± 0.024
13. TTCTTTTTGC  0.9678 ± 0.0084
14. TTGAATGTCA  0.968 ± 0.019
15. TTGCGTTGCG  0.9685 ± 0.0036
16. TTCGGGGACG  0.969 ± 0.052
17. TTCTTTTTGG  0.97 ± 0.042
18. TTGATGCCCA  0.97 ± 0.023
19. TTGATCTGTT  0.972 ± 0.021
20. TTGCCTGTAT  0.9731 ± 0.0073
21. TTGGACCGTG  0.973 ± 0.069
22. TTGAACGTTT  0.974 ± 0.019
23. TTCTTATTGT  0.975 ± 0.019
24. TTGAGGACGT  0.975 ± 0.045
25. TTGAGTTTGT  0.977 ± 0.015
26. TTCGTCAGGA  0.978 ± 0.036
27. TTGACAGT  0.9777 ± 0.0022
28. TTGCTATGGG  0.978 ± 0.017
29. TTCGGGGGAG  0.979 ± 0.026
30. TTGATATCGG  0.979 ± 0.023
31. TTGCTATGTG  0.979 ± 0.015
32. TTCGGCGGTG  0.98 ± 0.045
33. TTCGGTTTGT  0.98 ± 0.032
34. TTGATATAAT  0.981 ± 0.014
35. TTGCTGATTC  0.9811 ± 0.0067
36. TTCGGGGAAT  0.982 ± 0.034
37. TTCTATACCG  0.982 ± 0.036
38. TTGCGGCGGT  0.983 ± 0.033
39. TTGCTATCTT  0.983 ± 0.052
40. TTGCGTTGGC  0.984 ± 0.043
41. TTCGGTTATA  0.986 ± 0.053
42. TTCGTCAGTG  0.986 ± 0.013
43. TTGCTCGAAA  0.987 ± 0.075
44. TTCGTATACC  0.988 ± 0.051
45. TTGAGTGAGC  0.988 ± 0.025
46. TTGATTTGTC  0.988 ± 0.011
47. TTGATCGATG  0.9886 ± 0.0068
48. TTCTCGGGTT  0.99 ± 0.023
49. TTGAAATTGG  0.99 ± 0.031
50. TTGACAATGG  0.99 ± 0.012
51. TTGAGAGGGA  0.99 ± 0.019
52. TTGAGTGGGT  0.99 ± 0.042
53. TTCGGGGATG  0.991 ± 0.048
54. TTCGTTTTCG  0.991 ± 0.029
55. TTCTCGGACG  0.991 ± 0.017
56. TTGAAAAAGT  0.992 ± 0.018
57. TTGAAAATGG  0.992 ± 0.026
58. TTGAGGGAAT  0.992 ± 0.033
59. TTGAGTACGT  0.992 ± 0.045
60. TTGCTTGGAA  0.992 ± 0.026
61. TTGCTTTTTT  0.992 ± 0.013
62. TTCTTGGACA  0.993 ± 0.016
63. TTGACGGAGA  0.993 ± 0.039
64. TTGCGCTCGT  0.993 ± 0.011
65. TTCTCGGGCT  0.994 ± 0.031
66. TTGAATGGTT  0.994 ± 0.021
67. TTGCTTCAGC  0.994 ± 0.097
68. TTCGTAAGTT  0.99485 ± 0.00084
69. TTCTGTTTCT  0.995 ± 0.011
70. TTGCTGTTAG  0.995 ± 0.0074
71. TTGAAGGATG  0.997 ± 0.029
72. TTGATATGGT  0.997 ± 0.022
73. TTGCTTAAGG  0.997 ± 0.026
74. TTCTTAGCTT  0.998 ± 0.019
75. TTGATAGCTT  0.998 ± 0.018
76. TTCGGTACGT  0.999 ± 0.0024
77. TTCTGGGACT  0.999 ± 0.021
78. TTGACTTGTC  0.9991 ± 0.0069
79. TTGAGATATG  0.9989 ± 0.0076
80. TTGCCTGCGG  0.999 ± 0.0067
81. TTGCTCAAGC  0.999 ± 0.068
82. TTCGGGGTTC  1.0029 ± 0.00079
83. TTCGTGTTCT  1 ± 0.03
84. TTCTGATTAT  1 ± 0.035
85. TTCTGTGGCG  1 ± 0.069
86. TTCTTGTGTG  1 ± 0.041
87. TTCTTTTGTT  1 ± 0.025
88. TTGAATATTT  1 ± 0.014
89. TTGAGGATTG  1 ± 0.018
90. TTGCATTTGT  1 ± 0.03
91. TTGCGGTCGT  1.002 ± 0.0023
92. TTGCTGTTTC  1 ± 0.067
93. TTGCTTTGTG  1 ± 0.042
94. TTGCTTTTGC  1 ± 0.023
95. TTCGGGATTT  1.007 ± 0.0062
96. TTCGGGGGCA  1.01 ± 0.052
97. TTCGGTCACC  1.014 ± 0.0054
98. TTCGGTGAAG  1.01 ± 0.0051
99. TTCGGTGTGG  1.01 ± 0.04
100. TTCGGTTGGT  1.01 ± 0.029
101. TTCGTTAGAA  1.0091 ± 0.00067
102. TTCGTTTTGG  1.01 ± 0.038
103. TTCTATTCGA  1.008 ± 0.0058
104. TTCTGGCTAT  1.01 ± 0.039
105. TTCTGGGGAT  1.009 ± 0.0014
106. TTCTGTGTTT  1.01 ± 0.037
107. TTGAAATCGC  1.01 ± 0.041
108. TTGACGACGG  1.01 ± 0.048
109. TTGAGAGCGG  1.01 ± 0.047
110. TTGAGTACTA  1.01 ± 0.022
111. TTGATAGAAA  1.01 ± 0.038
112. TTGATAGGGG  1.01 ± 0.031
113. TTGATGAAGA  1.01 ± 0.036
114. TTGCACCGTT  1.01 ± 0.038
115. TTGCACGCCT  1.01 ± 0.024
116. TTGCATTTGG  1.01 ± 0.088
117. TTGCGCTACG  1.01 ± 0.011
118. TTGCGGCGCT  1.01 ± 0.043
119. TTGCGGGTGA  1.01 ± 0.059
120. TTGCGTGTGA  1.01 ± 0.028
121. TTGCTGGGGG  1.01 ± 0.059
122. TTGCTTGAGC  1.006 ± 0.0092
123. TTGGAAGGGT  1.01 ± 0.031
124. TTCGGGAACA  1.02 ± 0.038
125. TTCGGTTTGC  1.02 ± 0.066
126. TTCGTAGGCA  1.02 ± 0.042
127. TTCTCGTTGG  1.02 ± 0.032
128. TTCTGGATCC  1.02 ± 0.043
129. TTCTGGGCGG  1.02 ± 0.032
130. TTCTGGTATA  1.02 ± 0.024
131. TTCTGTTGGT  1.02 ± 0.087
132. TTGAACTGTG  1.02 ± 0.22
133. TTGAGAGGTT  1.02 ± 0.039
134. TTGAGCTTGT  1.02 ± 0.027
135. TTGAGGTCGT  1.023 ± 0.0038
136. TTGAGTGTGC  1.02 ± 0.023
137. TTGAGTTTAT  1.02 ± 0.12
138. TTGATTATAT  1.02 ± 0.012
139. TTGCAAGAGA  1.022 ± 0.0082
140. TTGCTTTTGT  1.02 ± 0.025
141. TTGGAAAATG  1.02 ± 0.037
142. TTGGAATAAA  1.02 ± 0.015
143. TTCGGGACGC  1.03 ± 0.053
144. TTCGTATAGC  1.03 ± 0.036
145. TTCGTGGTGT  1.03 ± 0.015
146. TTCGTTCGAA  1.03 ± 0.067
147. TTCTCTGGGG  1.025 ± 0.0071
148. TTCTGTCCAC  1.03 ± 0.013
149. TTCTGTTCGC  1.03 ± 0.025
150. TTCTTCCTTT  1.028 ± 0.0051
151. TTGAAGTCCG  1.03 ± 0.026
152. TTGAATATCT  1.03 ± 0.032
153. TTGCACGGTC  1.03 ± 0.085
154. TTGCCGGCTC  1.03 ± 0.029
155. TTGCGGTGGG  1.03 ± 0.018
156. TTGCGTCATT  1.03 ± 0.016
157. TTCTACACAG  1.04 ± 0.032
158. TTCTTTGGGG  1.04 ± 0.093
159. TTGAGAAGGG  1.04 ± 0.04
160. TTGAGAGTTT  1.04 ± 0.093
161. TTGATAACAA  1.04 ± 0.036
162. TTGCGTTAGG  1.04 ± 0.012
163. TTGCTACACG  1.04 ± 0.02
164. TTGCTTGGGA  1.04 ± 0.014
165. TTCTGGGGGC  1.05 ± 0.064
166. TTCTTGTGGG  1.05 ± 0.057
167. TTGAAAAGAT  1.05 ± 0.04
168. TTGACGATTT  1.05 ± 0.063
169. TTGCAGACTT  1.05 ± 0.072
170. TTCTAAAAAT  1.06 ± 0.023
171. TTCTGGTTAC  1.059 ± 0.004
172. TTGAAACTCG  1.063 ± 0.0023
173. TTGAGCAAGG  1.06 ± 0.089
174. TTGCAGTGTT  1.06 ± 0.098
175. TTGCGACACC  1.06 ± 0.042
176. TTGGAATCGA  1.06 ± 0.035
177. TTGAACGGGT  1.07 ± 0.1
178. TTGAGTATGC  1.07 ± 0.047
179. TTCTTGCGCC  1.076 ± 0.0073
180. TTGCAAGGGC  1.08 ± 0.074
181. TTGCGGCCTT  1.09 ± 0.081
182. TTGACCTGGG  1.1 ± 0.098
183. TTCGTGAATT  1.11 ± 0.1
184. TTGCCAAATT  1.12 ± 0.13
185. TTGACCGGGA  1.14 ± 0.27
186. TTGCCGCACG  1.15 ± 0.024
187. TTGCTGTTAC  1.15 ± 0.15
188. TTCGTGGGGC  1.18 ± 0.21
189. TTGCGTTATC  1.2 ± 0.27
190. TTGCAGGGGA  1.3 ± 0.38
191. TTCGTGTTAC  1.32 ± 0.26
192. TTCTAGCTAT  1.58 ± 0.78
193. TTCTTAGCAC  1.58 ± 0.17
194. TTGCATACGT  1.61 ± 0.76
195. TTGCTACTCG  1.62 ± 0.73
196. TTGATCGCTC  1.82 ± 1
197. TTCTGCGTGC  1.85 ± 1.5
198. TTGCAGGTGT  1.85 ± 0.47
199. TTGACGTATA  1.96 ± 1.2
200. TTGCAATTGG  2.56 ± 2
